PMC4679524

What was measured:
[1] = target: GST-LE, dual phosphorylated (CK2 plus Syk, 2 added phosphates) (encephalomyocarditis virus (EMCV)); assay: SEC
[2] = target: GST-LE, dual phosphorylated (CK2 plus Syk, 2 added phosphates) (encephalomyocarditis virus (EMCV)); assay: pull-down
[3] = target: GST-LE, singly phosphorylated (reacted with CK2, 1 added phosphate) (encephalomyocarditis virus (EMCV)); assay: pull-down
GST-LE, singly phosphorylated (reacted with CK2, 1 added phosphate) (encephalomyocarditis virus (EMCV)), sequence (P03304 1-67 limits assumed): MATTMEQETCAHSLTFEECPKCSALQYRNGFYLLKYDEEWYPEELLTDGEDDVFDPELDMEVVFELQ

GST-LE, dual phosphorylated (CK2 plus Syk, 2 added phosphates) (encephalomyocarditis virus (EMCV)), sequence (P03304 1-67 limits assumed): as above

Work on “rCrm1 (recombinant His-tagged murine Crm1) (from UniProt Q6P5F9 1-1071) (natural protein)” yielded a stoichiometry N [1] of 1, a percent stronger rCrm1 signal per unit of GST(-LE) than without phosphate [2] of 50 to 70% and a percent stronger rCrm1 signal per unit of GST(-LE) than without phosphate [3] of 50 to 70%.
